Results reported in publication PMC8497992.

Columns and labels:
Test in all cases: fluorescence polarization
Settings in all cases: 50 mM Tris-HCl pH 8.0, 50 mM KCl, 1 mM EDTA; 50 nM labeled oligonucleotide; temperature not stated
[1] = target: SAMHD1 HD domain WT (UniProt Q9Y3Z3)
[2] = target: SAMHD1 HD domain R366C R366C (UniProt Q9Y3Z3)
[3] = target: SAMHD1 HD domain R366H R366H (UniProt Q9Y3Z3)
SAMHD1 HD domain R366H R366H, sequence (Q9Y3Z3 114-626 R366H): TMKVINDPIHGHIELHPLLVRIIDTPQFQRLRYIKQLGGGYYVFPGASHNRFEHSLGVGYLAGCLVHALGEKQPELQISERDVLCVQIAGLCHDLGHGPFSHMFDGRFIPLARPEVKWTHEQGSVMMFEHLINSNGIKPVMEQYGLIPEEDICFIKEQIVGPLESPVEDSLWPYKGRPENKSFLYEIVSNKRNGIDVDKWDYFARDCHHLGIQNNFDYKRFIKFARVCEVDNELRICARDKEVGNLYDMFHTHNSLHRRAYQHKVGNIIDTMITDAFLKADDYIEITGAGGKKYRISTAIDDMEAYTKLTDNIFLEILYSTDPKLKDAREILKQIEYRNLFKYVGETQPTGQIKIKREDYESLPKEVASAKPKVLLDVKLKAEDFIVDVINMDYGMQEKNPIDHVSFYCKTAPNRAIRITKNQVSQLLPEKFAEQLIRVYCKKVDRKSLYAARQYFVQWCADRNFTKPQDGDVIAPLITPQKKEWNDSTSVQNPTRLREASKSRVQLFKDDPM

SAMHD1 HD domain WT, sequence (Q9Y3Z3 114-626): as the sequence (Q9Y3Z3 114-626 R366H) above, with H253R counted along it
SAMHD1 HD domain R366C R366C, sequence (Q9Y3Z3 114-626 R366C): as the sequence (Q9Y3Z3 114-626 R366H) above, with H253C counted along it

Row | Substance | Kd [1] | Kd [2] | Kd [3]
1 | 6FAM-ssDNA57 | 387 nM | 3820 nM | 2960 nM
2 | 6FAM-ssRNA40 | 885 nM | 2250 nM | 2480 nM
